Reference: the DeepSol protein solubility set

Assay: soluble on expression in E. coli; label from the status in PepcDB or PDB records
For “MSLSGKENPNICFLPTATGDADEVIERFYNAKLSENVTHFPLFKFDAGWKETLFEQDIIYVGGGNTRSMLAIWREWGIDRILKQCYEQGIIICGMSAGAICWFEFAVTDSDPEAYQVMRCLGLIDGLAAAHFSHVGEKFEVFQAFARSQPSITCYGIHDYAALHFVDGKLLATVTSFPDAGVLVKTGNDENILRGEGHHHHHH”, the “soluble on expression in E. coli” value was “not soluble”. In the case of “MGRKSKNSSQSHAHGPVPGVYPTTTGEVELRADSFLPHAFEVYVNGVPSSHIAQDPEQLEYEYMRWIAAIVDWFVTTHSDPKKLRVTHLGGGACTLARYVCHRYPNARNTVVELDATLATLVREWFDLPRSPQLKIRVGDAWEVAQTFVPSSRDVIIRDVFAGNQTPRRLTTVEFFQQCHQALSPGGLYVANCGDHRDLNVAKAEVQGLREVFDHVACIADPTMLKGRRYGNIILIATDTQLPTDQEQQVLTRLLLGGGVPAQFKGGNWTKNFSSSSTARHD”, the “soluble on expression in E. coli” value is reported as “not soluble”. In the case of “MAHHHHHHMSANGKISVPEAVVNWLFKVIQPIYNDGRTTFHDSLALLDNFHSLRPRTRVFTHSDGTPQLLLSIYGTISTGEDGSSPHSIPVIMWVPSMYPVKPPFISINLENFDMNTISSSLPIQEYIDSNGWIALPILHCWDPAAMNLIMVVQELMSLLHEPPQDQAP”, the “soluble on expression in E. coli” value is reported as “soluble”. With “MLEIVSEELRHYQEQKLIEYRNKNQLAPKGGIVFAGDSLIEFFPLKKAFGSCLPIINRGIAGIDSQWLLRHFSVQITDLEPKHIFLLIGCNDIGLGYDKCHIVKTIVELISQIRSHCVYSQIYLLSLLPVSNNPRYQKTVKIRTNAMIDAINKDLAMIPTVEFINLNTCLKDEKGGLSDENTLDGLHLNFPAYAKLAEIIKSYI” the “soluble on expression in E. coli” value was “not soluble”. For “MTVLVVRHGTAGSKAHFSGDDSKRPLDKRGRAQAEALVPQLLAFGATDVYAADRVRCHQTMEPLAAELNVTIHNEPTLTEESYANNPKRGRHRVLQIVEQVGTPVICTQGKVIPDLITWWCERDGVHPDKSRNRKGSTWVLSLSAGRLVTADHLEHHHHHH”, the “soluble on expression in E. coli” value was “not soluble”. With “MGSDKIHHHHHHAEVPVSDTIQQEAPAKVQITYDDPRDPFEGFNRAMWDFNYLYLDRYLYRPVAHGYNDYIPMPAKTGINNFVQNLEEPSSLVNNVLQGKWGWAANAGGRFTINSTVGLLGVIDVADMMGMSRKQDEFNEVLGYYGVPNGPYFMAPFAGPYVVRELASDWVDGLYFPLSELTMWQTIVKWGLKNLHSRASAIDQERLVDNALDPYAFVKDAYLQHMDYKVYDGNVPQKQDDDELLDQYMQELE” the “soluble on expression in E. coli” value was “not soluble”. In the case of “MMRITGKHCLRVAILSIQRSGMIHPRNTNGSKAKNVMVADGCVIEGTVENSILSRGVKIGKNAKVKNCILLQDTVIEDGANLEYVITDKNVRVSRNRSLTGNDSFQVYVAKGQTV”, the “soluble on expression in E. coli” value is reported as “not soluble”. In the case of “MKKTLALAATAAVLMLSACSSGFGGEKEEEITQKTAKSSEKAIVPKYNISDSYYKMVLPFKAGKARGLTTEQLNTRLDIDEFETGLMRLAQDSFSTDDYLFQEGQYLDEDTVLSWLARKKTGSDLKKAEKEDKNFKNEGLNPALPSSGSTEEKNESSPIYLASMLEHDYLVRKDKNSIQLGGVMIGLALNSVYYYREKTGDPQKEVEIKDSTLRQQGEKIAQEVINRLRKKDNLKNVPITVALYKQASKTSIVPGNFIAKTEVKAGSTDISNWDDINEKYVFYPADTTTAEKYPDDTEVFKRFKNSIEEYFPNYTGVVGTALYENDEMKKMKIDIPMQFYGKSEVVAFTQFLTGEVMDYYSKSSVDVEVNITSSDGQEAVIIRNAGDKEPTVHIYD”, the “soluble on expression in E. coli” value is reported as “not soluble”. For “MRSGKIFHHFDQWGIIIRKDMLKQLALFIALFGAVTAWNRQNHFGNPCYLCSCFTVYTDRDVAVPLRPYAMAIDGYDTTEDRCLATCQRDQRCRAAVYGMVGGRSVFTCEFYEKFNTKSVPVYTTYVNMYMKRSSECKLPIAHLSSIEMIPADNSSLKRRAKLEKLIGRKNPFLG”, the “soluble on expression in E. coli” value was “not soluble”. For “MLSSQAYDIAIVGGGMVGLATAIGLAQADLNVVVIDAGHTEAVSGEPRLRVSAINKASQRLLEHLGAWHYVDASRATPYQKMAVWDKDGFGKIAFDASSISEPSLGAIIENDAISYALAKRASEFDNITHIENQRLERIAFGEREAWLTLANSADAEIESVSAALVIAADGANSWVREQCKIPLTFWDYGHHAIVATIRSEMPHLATARQVFLQDGPLAFLPLYEDNLCSIVWSVPPERATELLAMDKVQFERNLTAAFDGRLGICKLESERQAFPLRMRYARHFARHRLVLAGDAAHTIHPLAGQGVNLGFLDAASIIEVISELQQAGKDIGDYAELRALERWRKADAMEMIAAMEGFKRLFEGSNPVKKAIRDLGLNLVDNVAGLKTVFMQQAMGNKSSLPKLCRLEHHHHHH”, the “soluble on expression in E. coli” value was “soluble”. In the case of “VLRHISPAFAEDPLRVLRAARFMARLAPLGFSIAPETLAMMRQMAANGELNSLIPERIWKELSRSLTYTQPAAFLHTLRTVNALEVVLPELNALYGVPQHADYHPEIDTGLHQELVSDIAAKLAPGDMLIGFAALCHDLGKALTPRATWPHHPMHEQRGMAPTQQLSERLKVPRNYQQLALIACREHLNVHRLSKLHDNTVYELLQRCDAFRRPERIAQLAIVCEADYRGRYGHEDANYPQG”, the “soluble on expression in E. coli” value is reported as “not soluble”. For “MNDRADFVVPDITTRKNVGLSHDANDFTLPQPLDRYSAEDHATWATLYQRQCKLLPGRACDEFLEGLERLEVDADRVPDFNKLNEKLMAATGWKIVAVPGLIPDDVFFEHLANRRFPVTWWLREPHQLDYLQEPDVFHDLFGHVPLLINPVFADYLEAYGKGGVKAKALGALPMLARLYWYTVEFGLINTPAGMRIYGAGILSSKSESIYCLDSASPNRVGFDLMRIMNTRYRIDTFQKTYFVIDSFKQLFDATAPDFAPLYLQLADAQPWGAGDIAPDDLVLNAGDHQGWADTEDV”, the “soluble on expression in E. coli” value was “soluble”. With “MSSPHSLRQQYQSLIASGSIEADPAQARAVQAFTLLNETLDGYKPPKKQGFFGRLFGGGDAGQAPPQGLYIHGEVGRGKTMLMDLFFDASPIALKRRSHFHEFMAETHDRINGFRQAIKRGDIPDADVMELTAASILDEAWLLCFDEFHVTDIADAMILGRLFTKLFELGTVVVATSNVAPDDLYKGGLNRSLFMPFIGQVKRHMRVIRLDARTDYRLEKFAGMKVWLAPDDAEATATIDRAWHRITGTTKGEPRDISIKGRILHVPQADHHVARFSFADLCQKPLGASDYLRLAHEYHTLMIDHVPVMDYADRNAAKRFIALIDTLYDNSVKLMASAAAEPARLYRATEGFEALEFNRTVSRLTEMGSESYLALPHGRRDSTATGETTGLVETMAGDPLEHHHHHH” the “soluble on expression in E. coli” value was “not soluble”. With “MSDEAWKQTLICESINDKIGYWEYLAVTDKRRRSRNKAQSSGAENYKKVLEEQQRIYTAGGMGYGPEMYQVISNPMRNQKRVNNIEGSKIFAAMNSGAPRIALDIQYVEEMNKRDSGELGNQMQYTISENFSAKSPFVLDFVNSPSKEFLEQWLSKSVGYYTGNYINQTILPDFSTKGIKEFYGKSANTIYISSNARDVLDGPLTADVIGICVTMGRKREALSAARRANIRAYRLPIHRYVKWKSGPQYLPFPNIMNVLREVYMNGGDWSRALHNNISKRHLVNADDDEQKKMQMLRRRAREEERRELTEAIMSATKG” the “soluble on expression in E. coli” value was “not soluble”. For “MSLSDTEKKIADTKGQFLQAVSQGQRLTDAEWRNCRIVLTTERVALLGDDKRQISLTDIDRIADRFDVNQQSAGVSDYVALYVGEDVILVSASDHGTFETDFYRASLDGAIVLVQHPALKGGVVQSAEWTKGRLKVTDEALKLAMADGQAVVIDRADIGDLAVEEKQVSGEERTVIQVEHSEEDISVETHLAGEEFHATVLRTMLEESAEQNQADLDLSSTEKRVIMALHSGVSPFDIPNFVGIDVEKTEEIFDRLIELDVISVLRERTEVNLTTKGRRVAGERMGEQEGHHHHHH”, the “soluble on expression in E. coli” value was “not soluble”.
